Source: publication PMC10928148 (Molecular Therapy, 2024)

B1: COVA2-15 IgG (antibody, V domains shown)
VH: QVQLLESGGGLVQPGGSLRLSCAASGFTFSSYAMSWVRQAPGKGLEWASAISGSGGSTYYADSVEGRFTISRDNSKNTLYLQMNSLRAEDTAVYYCAKDTGYCGDDCYIKLIRGGPDYWGQGTLVTVSS
VL: DIVMTQSPLSLPVTLGQPASISCRSSQSLVYSDGNTFLNWFQQRPGQSPRRLIYQVSNRDSGVPDRFSGSGSGTDFTLKISRVEAEDVGVYYCMQGTHWPRTFGQGTKLEIK
B2: COVA2-15 secretory IgA1 (antibody, V domains shown)
VH: B1 VH
VL: B1 VL
B3: COVA2-15 monomeric IgA2 (antibody, V domains shown)
VH: B1 VH
VL: B1 VL
B4: COVA2-15 monomeric IgA1 (antibody, V domains shown)
VH: B1 VH
VL: B1 VL
B5: COVA2-15 secretory IgA2 (antibody, V domains shown)
VH: B1 VH
VL: B1 VL
B6: COVA2-15 IgG (antibody, V domains shown)
VH: B1 VH
VL: B1 VL
B7: COVA2-15 secretory IgA1 (antibody, V domains shown)
VH: B1 VH
VL: B1 VL
B8: COVA2-15 monomeric IgA2 (antibody, V domains shown)
VH: B1 VH
VL: B1 VL
B9: COVA2-15 monomeric IgA1 (antibody, V domains shown)
VH: B1 VH
VL: B1 VL
B10: COVA2-15 secretory IgA2 (antibody, V domains shown)
VH: B1 VH
VL: B1 VL

Target: T1, Wuhan-Hu-1 S protein on plant-produced virus-like particles (Severe acute respiratory syndrome …, UniProt P0DTC2)
T1 construct: also called Spike protein of the Wuhan variant on VLPs; Wuhan variant
Assay: ELISA
Settings: both partners purified

Compared with B1, B2 is 5-fold lower in EC50: roughly 0.05 nM for the first, roughly 0.01 nM for the second.

B3 and B4 are the same in EC50: roughly 0.05 nM for the first, roughly 0.05 nM for the second.

B5 showed an EC50 of roughly 0.01 nM.

Target: T2, Wuhan-Hu-1 S protein on plant-produced virus-like particles (Severe acute respiratory syndrome …, UniProt P0DTC2)
T2 construct: also called SARS-CoV-2 VLPs (Wuhan variant)
Assay: ELISA
Settings: both partners purified

First: B6
Second: B7
The EC50 of the first is 3.2-fold higher: 0.032 nM for the first, 0.01 nM for the second.

Compared with B8, B9 is 2.8-fold lower in EC50: 0.149 nM for the first, 0.054 nM for the second. The second is the more potent here.

In the case of B10, the EC50 is reported as 0.017 nM.
